These results are taken from patent publication US20250066490A1, “ANTI-CD70 ANTIBODIES, CONJUGATES THEREOF AND METHODS OF USING THE SAME” (ProfoundBio US Co., priority 2021, published 2025).

Like-named read-outs stand apart in the source and are kept apart here.

Data set [1] deals with 786-O, Caki-1, U251 and DBTRG-05MG cells. The data set can be described thus: Antibody binding by flow cytometry, statements across all four tumor cell lines. More on the design: species or system human. Conditions: range over the four cell lines. The method, then: The lead antibodies were tested for binding to renal carcinoma cells and glioblastoma cells expressing CD70 on the cell surface by flow cytometry. Cell lines 786-O (ATCC® CRL-1932™, provided by COBIOER), Caki-1 (ATCC® HTB-46™, provided by COBIOER), U251 and DBTRG-05MG (ATCC® CRL-2020™, provided by COBIOER) were each tested for antibody binding. 786-O cells were cultured with RPMI 1640 medium (Gibco, Cat #11875093) containing of 10% FBS (Gibco, Cat #10099141) while Caki-1 cells were cultured with McCoy's 5a Modified medium (Gibco, Cat #16600082) containing 10% FBS. U251 cells were cultured with MEM medium containing of 10% FBS and 1% NEAA+1 mM sodium pyruvate. DBTRG-05MG cells were cultured with DMEM medium (Gibco, Cat #C11995500BT) containing of 10% FBS. Each of the lead antibodies and the controls were incubated for 30 mins with the different cell lines (3×10^5 cells per well) in 0.2 ml FACS buffer (1×PBS with 0.1% BSA) at 4° C. Then, the cells were pelleted, washed, and incubated at 4° C. for 30 mins with 100 μl of 1:200 diluted PE-conjugated anti human Fc (Abcam, Ab98596) in FACS buffer. The cells were pelleted again, washed with PBS, resuspended in FACS buffer and analyzed by flow cytometer (Beckman, CytoFLEX).
(In general: Flow cytometry measures light scatter and fluorescence of single cells or particles in a stream.)

Another data set deals with Caki-1 cells. Description: Internalization by FACS immune-fluorescence staining, Caki-1. It counts as cell-based, human. How it is done:
Briefly, 2×10^5 cells were harvested from a tissue culture flask by treatment with 0.25% Trypsin/EDTA and then incubated with 10 μg/ml of the lead antibodies or control antibodies in FACS buffer (1×PBS with 0.1% BSA) for 30 mins at 4° C. The cells were washed at 4° C. to remove unbound antibodies and kept on ice or shifted to 37° C. At the set time points (0 h, 4 h, 24 h), cells were incubated with PE-conjugated anti human Fc (Abcam, Ab98596) for 30 mins at 4° C. and then analyzed by flow cytometry. The internalization ratio was calculated by subtracting the 37° C. MFI from the 4° C. MFI, and then compared with 4° C. MFI.
(§1) Four cell lines ([…]), Caki-1, Raji, MCF-7) were utilized in the internalization assay. Target (CD70) copy numbers were determined via the QIFIKIT (DAKO, K0078). Briefly, cells were labeled with a primary mouse monoclonal antibody against CD70. Cells, Set-up beads, Calibration beads (from the kit) were then labeled in parallel with a fluorescein-conjugated anti-mouse secondary antibody. The fluorescence is correlated with the number of bound primary antibody molecules on the cells and on the beads. Samples were subsequently analyzed on the flow cytometer and copy number determined based on the calibration curve (Table 11). For internalization assay, 3×10^5 cells were incubated at 4° C. for 30 min with 10 µg/ml 2E7 in FACS buffer (1×PBS containing 0.1% BSA). Cells were washed at 4° C. to remove unbound material and kept on ice or shifted to 37° C. for different lengths of time. At progressive timepoints ([…], 0.5, 1, 2, 3, 4 hr) cells were stained with PE-conjugated anti-human Fc for 30 min at 4° C. and analyzed by flow cytometry. Internalization rate were calculated by subtracting the mean fluorescence intensity (MFI) of cell surface-bound antibody at 37° C. at each time point from the MFI of cell surface-bound antibody at 4° C. at time 0, then divided by the MFI of the cell surface-bound antibody at 4° C. at time 0.

A short description of data set [2]: Hydrophobic interaction chromatography (HIC). The data set is classed as physicochemical. Conditions: full IgG. How it is done:
Antibodies were purified from cleared cell culture supernatants using Protein A chromatography (Protein A resin slurry, 4.5 mL, Bogen, Cat #18-0010-02). Briefly, supernatants were prepared for affinity chromatography and loaded onto the columns and allowed to flow completely through the resin. The columns were washed with binding buffer containing 0.15M NaCl and 0.2M PB, PH7.0. Antibody was eluted with elution buffer containing 0.15M NaCl, 0.1M Glycine and 0.2M PB, PH 3.0. Fractions were collected and neutralized by the addition of 1/10 volume of 1M Tris, PH9.0. The fractions were dialyzed for 2 hours against 1×PBS. Purified antibody was quantified by absorbance at A280. Samples from each step of the protein A chromatography were applied onto 12% SDS-PAGE gels for reduced and non-reduced electrophoresis. The hydrophobicity was assessed with hydrophobic interaction chromatography (HIC) on a TSK gel Butyl-NPR, 4.6×100 mm with Butyl-NPR (Tosoh corporation) using a Waters HPLC 2695 system.

Data set [3] concerns the target T1, human CD70 extra-cellular domain (ECD) (Homo sapiens, UniProt P32970).
T1 construct: human, rat, or mouse CD70 extra-cellular domain (ECD) linked to His tag; His tag; purchased ACRO systems
T1 sequence (P32970 39-193 limits assumed): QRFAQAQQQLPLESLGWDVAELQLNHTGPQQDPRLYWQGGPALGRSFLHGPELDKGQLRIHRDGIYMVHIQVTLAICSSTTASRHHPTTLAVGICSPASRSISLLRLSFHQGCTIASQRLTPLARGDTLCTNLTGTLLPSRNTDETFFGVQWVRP
Description: Biolayer interferometry (BLI), human CD70. It counts as binding. How it is done: Recombinant proteins consisting of human, rat, or mouse CD70 extra-cellular domain (ECD) linked to His tag was purchased (from ACRO systems). 69A7 and 2E7 (20 nM) were immobilized on anti-human IgG Fc biosensor tips (ForteBio). Binding assays using one concentration (100 nM) of recombinant protein in solution were performed using Octet RED (ForteBio). Association time was set at 180s and dissociation time was set at 300s. Binding affinity was calculated using ForteBio Data Acquisition 6.3 software. Affinity was derived by fitting the kinetic data to a 1:1 Langmuir binding model utilizing global fitting algorithms. […] Binding assays for 2E7 using multiple dilutions (from 200 nM down to 3.13 nM) of species' recombinant CD70 ECD proteins in solution were also performed using the same method.
(In general: In BLI a coated tip is dipped into the sample, and binding shifts an interference pattern.)

Data set [4] concerns CD70-negative cell line (MCF-7). The data set can be described thus: Internalization time course, MCF-7. It counts as cell-based. Conditions: MCF-7, up to 4 hr, FIG. 13. How it is done: as §1
[5] abbreviates: Hu CD70 100 nM, one concentration.

B1: 2E7: anti-CD70 antibody clone, VH SEQ 7 and VL SEQ 8; tested as scFv and full human IgG1/kappa (antibody, V domains shown)
VH: QVQLQESGPGLVKPSETLSLTCTVSGGSVSSDYYYWSWIRQPPGKGLEWLGYIYYSGSTNYNPSLKSRVTISVDTSKNQFSLKLRSVTTADTAVYYCARGDGDFLGVCFDYWGQGTLVTVSS
VL: EIVLTQSPATLSLSPGERATLSCRASQSVSSYLAWYQQKPGQAPRLLIFDASNRATGIPARFSGSGSGTDFTLTISSLEPEDFAVYYCQQRSNWPLTFGGGTKVEIK
modifications: Synthetic 2E7 VH amino acid sequence; Synthetic 2E7 VL amino acid sequence
notes: tested as scFv and full human IgG1/kappa
Turning to B1, in data set [1], the “EC50 relative to that of antibody 69A7” value was 1.8˜3.5 times. Also, the “absolute amount of antibody internalized into cell vs parent antibody 69A7” value in the data set on Caki-1 cells (Caki-1, based on the cell binding affinity) is given as “higher absolute amount of antibody internalized into cell than the parent antibody 69A7”. The “internalization, time course” value is “rapid internalization” with Caki-1 cells (Caki-1, up to 4 hr, FIG. 13) and “no internalization” in data set [4]. For the same molecule, the “hydrophobicity compared with the parent antibody 69A7” value in data set [2] (HIC) is on record as “slightly more hydrophobic than the parent antibody 69A7”. In addition, the “Retention time” value in data set [2] (hydrophobicity by HIC) is listed as 10.19 min. Moreover, the Response is 0.1732 in data set [3] (HU CD70 3.13 nM); 0.2136 in data set [3] (HU CD70 6.25 nM); 0.3519 in data set [3] (HU CD70 12.5 nM); 0.5319 in data set [3] (HU CD70 25 nM); 0.6227 in data set [3] (HU CD70 50 nM); 0.7695 in data set [3] (HU CD70 100 nM, dilution series). Moreover, the Response in data set [3] (HU CD70 200 nM) came to 0.825; in data set [3] (setting [5]), 0.5157. Besides, the “ka” value in data set [3] (HU CD70, multiple dilutions 200-3.13 nM, global fit) was found to be 314300 M⁻¹ s⁻¹; in data set [3] (setting [5]), 365000 M⁻¹ s⁻¹. In addition, the equilibrium dissociation constant (Kd) in data set [3] (human CD70, multiple dilutions (200 nM down to 3.13 nM), read-out: KD) stood at 0.81 nM; in data set [3] (human CD70, one concentration (100 nM), read-out: equilibrium dissociation constant (KD)), 0.97 nM.

As a reminder, the Kd is the concentration at which binding is half-saturated.
